A protein production outcome set (Wang et al. 2014)

experiment: label from the status in PepcDB records
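Also: failed if final PepcDB status was selected cloned or expressed and not failed if soluble or beyond.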

Row | Sequence | protein production
1 | MTTTIEVGMLGLGTVGSGVVERLTRSAAKIEQTQGIRLHLAAVAVNHLNAPRTVQLPIGTRLTDSLTNVVCDRKIQLVIEVMGTVATAKKAIVAALNQGKAVVTANKDLIATAGPELAALAKKQGCDLFYEASVAGGIPILRTLTDSYVTDNVQAVSGIINGTANYMLSAMATGQSYEQALATAQATGYAEADPTNDVAGIDAAYKLMILSRFAFGQELSLPQIAPTGITHLSASVCRLAAENGWQIKLLAQIQRHGSGLYCRVAPVAVPVDQPLSQINGVQNAVAVQSEAIGTSLYTGPGAGSTATANSVLNDVLVAAKHLINGYRMIRNQKRSVSLTVTRFDQLPQTYLGIGPVAPEAVKYYANEADFSVKTIADDCYQITGLSAVKRKKLRANLPLTLIPIAGTTDWKQVTENSITSPINVAILEHHHHHH | not failed
2 | MTVANWQVRDLTLILRTGEMQSRLEQARTDFGALLPETVYFQPSAIRLGEFDDEYILTRQELVYVYLREDIARQCALRRHLPSNSSNSGIMATAIPPWLMDARRLNRVMQERCDQGGLVHYYQGPHTNQFFLAIMPSNCFVRFGTDVINNENYGFYARGGNYTEEGEDDDDEMDDEDETGGAETRDSQTGNLINYPIIALGSCHLSALEHHHHHH | not failed
3 | MTVDPASHITIPEADLARLRHCNHHDPHGFYGWHETEAGSVIRTRQVGATQVNLLIDDTSHVMTPIGDDIFAIDLGHRERADYRLEVTWPDQEPQVKADPYYFLPTVG | not failed
4 | MTVGQVLRSYPQTVQTFLELGMHCLGCPSSTMESIEGAALTHGKKPDELVEKLNKVIAANLEHHHHHH | failed
5 | MTWTNVLAMLVWTGASAVLLFAIMWVDSIFTKYNDLKEIKNGNTAVTTRFVMKLFAQGYILSQSITKANDLWQALLASAVSFVILLVVEMFIEFVLKKMAGLDLEEGTKEGSVAHAMLAGSLHIVGALILGACL | failed
6 | MTYEAFVELVERLWEEVPEDFKRGLQGVHVFPEAKPEPGLEGVWRLGEYLDPGPPSAFGGFEDLGRHIALYYGSFLEVAGEGFDWEAEVWETLLHELRHHLESLAGRDDLVQEDLRRLDAFRRGGPSGEG | not failed
7 | MTYELSTDREFDLIAIGRACIDLNAVEYNRPMEETMTFSKYVGGSPANIVIGSSKLGLKAGFIGKIADDQHGRFIESYMRGVGVDTSNLVVDQEGHKTGLAFTEIKSPEECSILMYRQDVADLYLSPEEVNEAYIRRSKLLLVSGTALSKSPSREAVLKAIRLAKRNDVKVVFELDYRPYSWETPEETAVYYSLVAEQSDIVIGTREEFDVLENRTEKGDNDETIRYLFKHSPELIVIKHGVEGSFAYTKAGEAYRGYAYKTKVLKTFGAGDSYASAFLYALISGKGIETALKYGSASASIVVSKHSSSDAMPSVEEIEALIEKDETITIA | not failed
8 | MTYLETAAQFYSEVAQTPQVGLCCVQSTPLQLPGLKIPLPMQEMNYGCGTTVHPTELGKQPTVLYVGVGGGLEALQFAYFSRRPGAVIAVEPVAAMREAAARNLEMALTDNPWFDSSFVEIREGDAFNLPVADGSVDIVAQNCLFNIFEPEDLTRALKEAYRVLKPGGRLQMSDPIATSPVPAHLQQDERLRAMCLSGALTYEEYTQRIIDAGFGQIEIRARRPYRLLDSQTYNLETHLLLESLDSVSFKVPMPEDGACIFTGRTAIYAGCDAFFDDKAGHILQRGIPATVCDKTAAKLATVKPKEVIITDSTWHYNGGGCCLEHHHHHH | not failed
9 | MVADESITVTVEVKNTGVVAGAEVVQLYLHDKKASVSRPIKELKGFAKVYLAPGESKRVSISLNKRDLSFWDVHTNDWLAEVGEFEVLLGTSLDNIRQKATFTYQNKYEQLEHHHHHH | failed
10 | MVAHSLVPLSPAAHAARLSSPSPRSLPQAPPVVLAVPPINRRTILVGLGGALWSWNALAAKEEAMAAARRPPPPPPKEKKDPTVTGVQAKVLASKKRKEEMKASIAKLREKGKPVVEAKPSSSSSE | failed
11 | MVASAPASAGTKGVIRQVIGPVLDVEFPAGKLPKIYNALRVETKNTAGQDVALTAEVQQLLGDHRVRAVAMSGTDGLVRGMEIADTGAPISVPVGEATLGRIFNVLGEPVDEQGPVNASATAPIHRDAPNLTELETKPKVFETGIKVIDLLAPYRQGGKVGLFGGAGVGKTVLIQELINNIAKEHGGVSVFGGVGERTREGNDLYEEFKESGVINADDLSKSKVALCYGQMNEPPGARMRVGLSALTMAEHFRDVNKQDVLLFVDNIFRFVQAGSEVSALLGRMPSAVGYQPTLGTDVGALQERVASTVEGSITSIQAVYVPADDLTDPAPATTFAHLDATTVLNRALASKGIYPAVDPLDSTSTMLQPAVVGDEHYRTARLVQSTLQRYKELQDIIAILGLDELSEDDRQTVDRARKVEKFLSQPFFVAEIFTGMPGKYVKLEETIAGFNQILAGELDHLPEAAFYLVGSIEEAKAKAEKIAAETK | failed
12 | MVCVDFIDQKVYSEAEGLFVSDLDLGIKGLIRARYPFALDSDFISYGNLSHYCMNYLDEIVQRANQKNEKIKYNVTTLMKEEEKPFNVEERLNKQATIGQRIADDVARFGGSWTFIIVFVSIMAIWMLVNIMKPFGIQFDPYPFILLNLALSTIAAIQAPLIMMSQNRAADYDRLQARNDFNVNKTSELEIRLLHEKIDHMVQQDQFELLEIQKLQTEMLVSLGNQLAQLKQLQK | failed
13 | MVDDRFNHFRIINRVLEKGMPVLTPVSVAIGVWMAERFSNFASAVPWLFAVISFVGALGLTLVDIRERLRRPQAMIVTLFILQILMPLIALLVGMWLFDPMTRSGLVLAFSIPTGVMSLMWVTIYHGNKSFALAVVFIHTLLSPFFIPWTLRWFIGTDIPFDVGGMVWGLLWMIVIPSLLAISATRYTPKVVPMMKDVLSPIAKLHLFLIIMINSSVAAPFIRSWDLSLLYIILTVLAIALSGYGLGYVGARLLKLDESMRISMVYTCGMRNIGAGAALAVAYFPPPVMVPIVAAILFQQVLAAALGKWMRTGRTDQSLIERGTT | failed
14 | MVDGEVEILRGYELRLLRCTVSFPQTGSPLESQPLDGTQSGTHPHDSLITSLLSSIEAGDYLGALSSDATKLILGDSELNLVDTVDSAEQVYSELLDKVESFVVNDSSDEIDKARRAVLVMCLAIATALWFTRCNLTGSTEGSTKCSLPLRVSESKELVEWENWAKIQLMSVGSDLLGKFSNLQHLVFARLLLFKLKDLLFEITSTETFEVRSISWWLVRVLLIHQRVLQERSSSLFEMLQVYMAEAIDHFGELEKVKSYWGANLLEDEASSITSTIHLEACVLQYIYGRIDPSRLQLESAKAAASLEFSVTGALGFRTIHQVDPKAQMVLVANTSSSNGDVRLASEKADVGPYEAWGGEAPEVYMTPKLVNNESEAGKDSVPLKPVEQALILAQCLLIERGSRHDEMQRWDMAPYIEAIDSQKSTYFVLRCFCDLLRVRWESTRGRTKGRALEMMDKLVGAINKSDPGVSNRIPLCYAVHLPTIPALRKEYGELLVSCGLVGEAITIFESLELWDNLIYCYCLLGKKSAAVDLINARLLERPNDPRLWCSLGDVTINDSCYEKALEVSNDKSVRAKRALARSAYNRGDFEKSKMLWEAAMALNSLYPDGWFALGAAALKARDVQKALDAFTFAVQLDPDNGEAWNNIACLHMIKKKSKESFIAFKEALKFKRDSWQMWENFSHVAMDVGNIDQAFEAIQQILKMSKNKRVDVVLLDRIMTELEKRNSACKSSSSSTETEASSDESTETKPCTATPAETQRQLELLGKVIQQIVKTESTAEIWGLYARWSRIKGDLTVCSEALLKQVRSYQGSEVWKDKERFKKFARASLELCRVYMEISASIGSKRELFTAEMHLKNTIKQATVSFLDSEELKELESCLEEVRNVMQKSEEEYRDTKT | failed
15 | MVDTNHKIAFCIDSDGCAMDTMTYKHQLFFGPIAADIFGISEQERTSFLKEWDRVNLYSRTRGVNRFVGLVMGLEFAGVEHIDKLKEWVETTDSLSNNSLELALANDFSRDLEKALEWSNEVNRQIKNYEGDSLAFSGVLESLERLSQFGNVYVVSSANKEAVWQEWEEQGLLKYVDDIYCQDRGKKEDVIATLIASGYCRETILMVGDSLGDLAAAEQNGIAFYPVLVGKEVKSWEILREDIGEAFAKGQFEQQRQKESINTFWANLDN | failed
16 | MVEASFGYEDFIVRMATGLLVGALIGIERERAQLVGKSEKSGSIPGFRSMGFMGLYGSATGYVSSYTASQYGVVFAALIAGLGAATITLLTLLFAYTRMIRLRAMGFTTYVVILLTFVAGLMSGMGLILEGVAVGVIGGLLLASKYPVVRMTRSVSYSELIALMEVAALILVLGPAVYYAGGYIPFIDVFQVYIFFTAIVAVSFTSYIASRIWGVRGFVTSIILGSIVNSEAVVASIASRRDIDRGVVFQAVVAALSVMQLRIAGLGLLALLVGGGFPQGEVVLHFRDNILPWLILLALMTIASIVAWASTLALEKVENKGVIPGTPLQWGVAVRGAVAFLLLTLLFDAASRALSGYTGNIAFLTLSIIGGFISANATLLSLAGLLTRLGADTFTVGILGIALGATFNKILYTRAVGAPPETVKEITKATALMSLLPVFFLILFWLLLQTPTG | failed
17 | MVEGSQEAKVAEILQKMEEMIGEEPKPQKLFSKVAPEWLERQMDERQFVMSLESIPEKYKHLIMIAVAAAVGSKMCTEVFTKIAKRRGVSEREIGEAILVARFALASTIFATVTPALEWLEGGDEE | failed
18 | MVEKGKMVKISYDGYVDGKLFDTTNEELAKKEGIYNPAMIYGPVAIFAGEGQVLPGLDEAILEMDVGEEREVVLPPEKAFGKRDPSKIKLIPLSEFTKRGIKPIKGLTITIDGIPGKIVSINSGRVLVDFNHELAGKEVKYRIKIEEVVDDKKNIVKEIVKMYVPRLSDVKVTIRNGTVKIELPEFAPFIPNIQTAKMAIANEILKRLEDAEKVSFVETFERKKETKEENK | failed
19 | MVEPMTPRFKYTKASQENIQQLGNILEQCFVMSFGDSEIYVKGIGLENFRVIYREQKVAGGLAILPMGQWWGGQRVPMAGIAAVGIAPEYRGDGAAIALIQHTLQEISEQDIPISVLYPATQRLYRKAGYEQAGSSCVWEIPTDSIQIQHASLPLEPVVLKNNPIFHELYQQQAQLTHGYLDRHPAIWQGLNRTLDTETLYSYLIGDKDKPQGYIIFTQERTRDGSILRIRDWVTLSNPAVQSFWTFIANHRSQIDKVTWKSSVIDALTLLLPEQSATIRSQDRWMLRIVNVCKALEARGYPLGVEAELHLEVQDDLLATNQGKFILSVANGKSEVTKGGKGELQLDIKGLASLYTSLFTPRQLQLTGKLQATETALLKATQIFAGESPWMIDFF | not failed
20 | MVERVASSEVANRLNEWYDTIKRQDIKKAAILKHDLQKAMDDMEEDQNVLLYYNLIDSRYKLLLEQYDESGTILESLKDQTERADTDNLLQYYYYFFSGLYEFNMNNFTHAIRLYHKAENHLTTIPDEIEHAEFHFQLAVAYQSIDQSFFSINHAEKALDIYLKQENYVSRIALTQMIIAANKLDLNQYLAAEKLYKKAILIAVDSNQTFIELLGYYNLGLCYEVQEKLEQARDCFEKALDFNFPQENKKETYLRIKYMLARVLFKMGFLQEGVKWFEDAVQLANETNDKIYQVKLQIIHAVYFDQKELSIDEGLKVLKEQSLWHDVEDLSFIAARFYKKEGFYQLASKYYEEGLNAQQKIPSLYEEVGSA | failed
